Measured values published in article PMC8811885 (ACS Omega, 2022).

Biological target: the molecule itself
Test: SEC-MALS

B1: human ELP1 with a C-terminal 3xFLAG tag (natural protein, UniProt O95163 1-1332, looked up)
chain: MRNLKLFRTLEFRDIQGPGNPQCFSLRTEQGTVLIGSEHGLIEVDPVSREVKNEVSLVAEGFLPEDGSGRIVGVQDLLDQESVCVATASGDVILCSLSTQQLECVGSVASGISVMSWSPDQELVLLATGQQTLIMMTKDFEPILEQQIHQDDFGESKFITVGWGRKETQFHGSEGRQAAFQMQMHESALPWDDHRPQVTWRGDGQFFAVSVVCPETGARKVRVWNREFALQSTSEPVAGLGPALAWKPSGSLIASTQDKPNQQDIVFFEKNGLLHGHFTLPFLKDEVKVNDLLWNADSSVLAVWLEDLQREESSIPKTCVQLWTVGNYHWYLKQSLSFSTCGKSKIVSLMWDPVTPYRLHVLCQGWHYLAYDWHWTTDRSVGDNSSDLSNVAVIDGNRVLVTVFRQTVVPPPMCTYQLLFPHPVNQVTFLAHPQKSNDLAVLDASNQISVYKCGDCPSADPTVKLGAVGGSGFKVCLRTPHLEKRYKIQFENNEDQDVNPLKLGLLTWIEEDVFLAVSHSEFSPRSVIHHLTAASSEMDEEHGQLNVSSSAAVDGVIISLCCNSKTKSVVLQLADGQIFKYLWESPSLAIKPWKNSGGFPVRFPYPCTQTELAMIGEEECVLGLTDRCRFFINDIEVASNITSFAVYDEFLLLTTHSHTCQCFCLRDASFKTLQAGLSSNHVSHGEVLRKVERGSRIVTVVPQDTKLVLQMPRGNLEVVHHRALVLAQIRKWLDKLMFKEAFECMRKLRINLNLIYDHNPKVFLGNVETFIKQIDSVNHINLFFTELKEEDVTKTMYPAPVTSSVYLSRDPDGNKIDLVCDAMRAVMESINPHKYCLSILTSHVKKTTPELEIVLQKVHELQGNAPSDPDAVSAEEALKYLLHLVDVNELYDHSLGTYDFDLVLMVAEKSQKDPKEYLPFLNTLKKMETNYQRFTIDKYLKRYEKAIGHLSKCGPEYFPECLNLIKDKNLYNEALKLYSPSSQQYQDISIAYGEHLMQEHMYEPAGLMFARCGAHEKALSAFLTCGNWKQALCVAAQLNFTKDQLVGLGRTLAGKLVEQRKHIDAAMVLEECAQDYEEAVLLLLEGAAWEEALRLVYKYNRLDIIETNVKPSILEAQKNYMAFLDSQTATFSRHKKRLLVVRELKEQAQQAGLDDEVPHGQESDLFSETSSVVSGSEMSGKYSHSNSRISARSSKNRRKAERKKHSLKEGSPLEDLALLEALSEVVQNTENLKDEVYHILKVLFLFEFDEQGRELQKAFEDTLQLMERSLPEIWTLTYQQNSATPVLGPNSTANSIMASYQQQKTSVPVLDAELFIPPKINRRTQWKLSLLD
  stoichiometry N: 2
